T1: DMD 35-36x.63 (synthetic construct)
T1 chain: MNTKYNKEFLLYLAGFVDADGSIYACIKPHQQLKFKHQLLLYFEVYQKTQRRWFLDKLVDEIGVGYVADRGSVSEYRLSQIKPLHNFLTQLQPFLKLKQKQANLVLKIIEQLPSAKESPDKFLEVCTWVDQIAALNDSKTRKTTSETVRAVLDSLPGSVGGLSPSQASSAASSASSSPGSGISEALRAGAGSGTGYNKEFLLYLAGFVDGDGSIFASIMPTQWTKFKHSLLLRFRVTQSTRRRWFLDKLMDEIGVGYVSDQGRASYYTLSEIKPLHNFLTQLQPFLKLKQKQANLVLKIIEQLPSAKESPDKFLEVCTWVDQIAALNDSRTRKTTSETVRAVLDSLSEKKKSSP

T2: DMD 35-36x.81 (synthetic construct)
T2 chain: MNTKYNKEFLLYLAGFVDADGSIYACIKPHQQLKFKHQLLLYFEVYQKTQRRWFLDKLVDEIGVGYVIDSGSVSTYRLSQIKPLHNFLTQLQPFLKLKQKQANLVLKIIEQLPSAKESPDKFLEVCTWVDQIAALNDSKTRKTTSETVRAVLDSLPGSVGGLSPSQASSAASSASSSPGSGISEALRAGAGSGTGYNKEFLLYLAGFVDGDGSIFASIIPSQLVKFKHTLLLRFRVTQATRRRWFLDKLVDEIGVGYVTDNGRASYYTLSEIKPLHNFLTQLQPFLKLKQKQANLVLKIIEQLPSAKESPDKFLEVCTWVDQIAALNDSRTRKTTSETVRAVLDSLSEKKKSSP

T3: DMD 37-38x.15 (synthetic construct)
T3 chain: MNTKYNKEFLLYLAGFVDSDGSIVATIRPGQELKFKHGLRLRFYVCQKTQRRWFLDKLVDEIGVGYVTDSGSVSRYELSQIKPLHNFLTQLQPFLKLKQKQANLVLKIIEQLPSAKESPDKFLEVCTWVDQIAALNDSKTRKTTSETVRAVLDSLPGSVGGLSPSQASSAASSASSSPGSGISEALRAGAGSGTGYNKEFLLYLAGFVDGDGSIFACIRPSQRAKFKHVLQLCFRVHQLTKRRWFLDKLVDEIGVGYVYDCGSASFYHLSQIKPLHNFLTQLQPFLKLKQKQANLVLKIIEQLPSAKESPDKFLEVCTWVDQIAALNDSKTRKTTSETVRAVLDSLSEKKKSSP

T4: DMD 37-38x.66 (synthetic construct)
T4 chain: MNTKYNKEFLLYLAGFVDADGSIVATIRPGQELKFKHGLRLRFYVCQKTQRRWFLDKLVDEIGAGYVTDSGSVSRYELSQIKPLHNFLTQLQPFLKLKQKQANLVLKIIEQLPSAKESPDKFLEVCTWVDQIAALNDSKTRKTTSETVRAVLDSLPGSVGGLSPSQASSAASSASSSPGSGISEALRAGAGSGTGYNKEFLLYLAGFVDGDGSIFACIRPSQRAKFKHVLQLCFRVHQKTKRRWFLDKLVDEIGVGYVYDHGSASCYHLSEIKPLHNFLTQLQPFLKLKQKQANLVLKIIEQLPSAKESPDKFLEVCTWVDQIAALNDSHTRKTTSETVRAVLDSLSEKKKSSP

T5: DMD 37-38x.79 (synthetic construct)
T5 chain: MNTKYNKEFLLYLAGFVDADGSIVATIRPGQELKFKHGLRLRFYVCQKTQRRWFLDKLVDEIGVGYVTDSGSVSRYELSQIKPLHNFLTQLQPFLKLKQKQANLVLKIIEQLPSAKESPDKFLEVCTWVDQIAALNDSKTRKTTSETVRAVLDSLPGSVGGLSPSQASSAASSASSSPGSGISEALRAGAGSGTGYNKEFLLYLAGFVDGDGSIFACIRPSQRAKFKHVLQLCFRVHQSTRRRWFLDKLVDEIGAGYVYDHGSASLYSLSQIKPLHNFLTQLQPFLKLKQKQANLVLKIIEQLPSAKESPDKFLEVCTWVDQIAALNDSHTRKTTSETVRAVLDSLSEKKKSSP


Legend:
Test in all cases: cell_activity; MRC5 cells, 2 ng mRNA; also active in CHO GFP reporter
Settings in all cases: tags: N-terminal SV40 NLS
DMD 35-36x.63 = target: T1, DMD 35-36x.63
Procedure: (§1) In these experiments, 1e6 MRC5 cells were electroporated with 2 ng or 100 ng mRNA encoding DMD meganucleases (DMD 19-20x.13, DMD 19-20x.87, DMD 29-30x.18, DMD 29-30x.40, DMD 35-36x.63, DMD 35-36x.81, DMD 37-38x.15, DMD 37-38x.66, or DMD 37-38x.79), or GFP using the Lonza Amaxa 4D system. Cells were collected at two days post electroporation for gDNA preparation and evaluated for transfection efficiency using a Beckman Coulter CytoFlex S cytometer. Transfection efficiency exceeded 90%. Additional time points were collected at five- and eight-days post electroporation for gDNA extractions. gDNA was prepared using the Macherey Nagel NucleoSpin Blood QuickPure kit.

DMD 35-36x.81 = target: T2, DMD 35-36x.81
Procedure: as §1

DMD 37-38x.15 = target: T3, DMD 37-38x.15
Procedure: as §1

DMD 37-38x.66 = target: T4, DMD 37-38x.66
Procedure: as §1

DMD 37-38x.79 = target: T5, DMD 37-38x.79
Procedure: as §1

Row | Binder | activity (DMD 35-36x.63) [% indel] | activity (DMD 35-36x.81) [% indel] | activity (DMD 37-38x.15) [% indel] | activity (DMD 37-38x.66) [% indel] | activity (DMD 37-38x.79) [% indel]
1 | DMD 35-36 recognition sequence (dsDNA) DNA 1: CTACATGGTGTATCTGACTAAG DNA 2: CTTAGTCAGATACACCATGTAG | > 30 | > 30 | – | – | –
2 | DMD 37-38 recognition sequence (dsDNA) DNA 1: CTGGCCGAAGTATAGGAATATG DNA 2: CATATTCCTATACTTCGGCCAG | – | – | > 30 | > 30 | > 30

Reference: patent US20250034536, “POLYNUCLEOTIDES ENCODING ENGINEERED MEGANUCLEASES HAVING SPECIFICITY FOR RECOGNITION SEQUENCES IN THE DYSTROPHIN GENE” (Precision BioSciences, Inc., published 2025)
